{"source": "patent US20190218553", "about": "“VON WILLEBRAND FACTOR (VWF)-TARGETING AGENTS AND METHODS OF USING THE SAME” (DUKE UNIVERSITY, published 2019)", "binders": {"B1": {"name": "T25 vrt3 (ssRNA)", "RNA": "ACGAACUGCCCUCAGCUACUUUCAUGUUGCUGACGCACAGACGU", "modifications": "mAfCmGrArAfCfUrGfCfCfCfUfCrArGfCfUrAfCfUfUfUfCrAfUrGfUfUrGfCfUrGrAfCrGfCrAfCrArGrAfCmGfU-idT (m=2'-OMe, f=2'-F, r=2'-OH)"}, "B2": {"name": "T25 vrt24 (ssRNA)", "RNA": "B1 RNA", "modifications": "rAfCrGrArAfCfUrGfCfCfCfUfCrArGfCfUrAfCfUfUfUfCrAfUrGfUfUrGfCfUrGrAmCrGfCrAfCrArGrAfCrGfU-idT"}, "B3": {"name": "T25 vrt4 (ssRNA)", "RNA": "B1 RNA", "modifications": "mAmCmGrArAfCfUrGfCfCfCfUfCrArGfCfUrAfCfUfUfUfCrAfUrGfUfUrGfCfUrGrAfCrGfCrAfCrArGrAmCmGmU-idT"}, "B4": {"name": "T93 vrt1 (ssRNA)", "RNA": "ACGAACUGCCCUCUAUUUCAUUUGACGCACAGACGU", "modifications": "2'-F C2,U7,C9,C10,C11,U12,C26,C28,C34,U36; ribo A1,G3,G8,A25,G27,A29,G35; rest 2'-OMe; 3' idT"}, "B5": {"name": "T12 (ssRNA)", "RNA": "GGGAGGAACUGCCCUCAGCUACUUUCAUGUUGCUGACGCACAGACGACUCGCUG", "modifications": "2'-F C and U; 2'-OH A and G"}, "B6": {"name": "VWF9.14 full length (ssRNA)", "RNA": "GGGAGGACGAUGCGGUGGACGAACUGCCCUCAGCUACUUUCAUGUUGCUGACGCACAGACGACUCGCUGAGGAUCCGAGA", "modifications": "2'-F C and U; 2'-OH A and G"}}, "key": {"[1]": {"molecular_target": "T1, von Willebrand factor (VWF) (Homo sapiens, UniProt P04275 P04275:764-2813)", "experiment": "filter; Bmax 38%; 2 mM CaCl2, 37 C", "details": "tags: factor VIII free, Haematologic Technologies Inc; label: 5'-32P", "method": "(§1) Affinity constants (Kd values) were determined using double-filter nitrocellulose filter binding assays (Rusconi et al, Thromb. Haemost. $4:841-848 (2000)). All binding studies were performed in binding buffer F (20 mM HEPES, pH 7.4, 150 mM NaCl, 2 mM CaCl₂, and 0.01% BSA) at 37° C. Human purified VWF (factor VIII free) was purchased from Haematologic Technologies Inc. (Essex Junction, Vt.) and used in the double-filter nitrocellulose filter binding assay to determine the Kd of the aptamers. Briefly, RNA were end-labeled at the 5′ end with T4 polynucleotide kinase (New England Biolabs, Beverly, Mass.) and [γ³²P] ATP (Amersham Pharmacia Biotech, Piscataway, N.J.) (Fitzwater and Polisky, Methods Enzymol. 267:275-301 (1996)). End-labeled RNA was diluted in binding buffer F, heat denatured at 65° C. for 5 minutes, and subsequently equilibrated at 37° C. Direct binding was performed by incubating trace ³²P-RNA with varying concentrations of VWF protein in binding buffer F at 37° C. for 5 min. The fraction of the nucleic acid-protein complex which bound to the nitrocellulose membrane was quantified with a phosphorimager (Molecular Dynamics, Sunnyvale, Calif.). Non-specific binding of the radiolabeled nucleic acid was subtracted out of the binding such that only specific binding remained (Wong and Lohman, Proc. Natl. Acad. Sci. USA 90:5428-5432 (1993))."}, "[2]": {"molecular_target": "T1, von Willebrand factor (VWF)", "experiment": "filter; Bmax 25%; 2 mM CaCl2, 37 C", "details": "tags: factor VIII free, Haematologic Technologies Inc; label: 5'-32P", "method": "as §1"}, "[3]": {"molecular_target": "T1, von Willebrand factor (VWF)", "experiment": "filter; Bmax 33%; 2 mM CaCl2, 37 C", "details": "tags: factor VIII free, Haematologic Technologies Inc; label: 5'-32P", "method": "as §1"}, "[4]": {"molecular_target": "T1, von Willebrand factor (VWF)", "experiment": "filter; Bmax 89%; 2 mM CaCl2, 37 C", "details": "tags: factor VIII free human purified VWF, Haematologic Technologies Inc; label: 5'-32P", "method": "as §1"}, "[5]": {"molecular_target": "T1, von Willebrand factor (VWF)", "experiment": "filter; Bmax 53%; 2 mM CaCl2, 37 C", "details": "tags: factor VIII free, Haematologic Technologies Inc; label: 5'-32P", "method": "as §1"}, "[6]": {"molecular_target": "von Willebrand factor (VWF) in whole blood (Homo sapiens, UniProt P04275 P04275:764-2813)", "experiment": "inhibition; platelet adhesion to collagen under high shear, human whole blood; text gives 72.6", "details": "protein: extract; tags: endogenous, hirudin-anticoagulated human whole blood", "method": "The Venaflux™ microfluidics system (Cellix, Dublin, Ireland) measures platelet adhesion on a collagen surface. Human blood was collected into hirudin tubes from healthy volunteers by vena puncture. An aliquot containing 300 μl of whole blood treated with aptamer or platelet-binding buffer alone was flowed through collagen-coated micro-channels at 60 dynes for 3 minutes. Channels were then rinsed with saline for 3 minutes to wash away RBC and unbound platelets. Venaflux imaging software and Image Pro Plus were used to image bound platelets and calculate covered surface area. Aptamer was incubated at 95° C. for 3 minutes, placed on ice for 3 minutes, then incubated for 10 minutes at room temperature. After cooling, aptamer was kept on ice until use. Total surface area covered by bound platelets in treated blood was expressed as a percentage of total coverage in negative control blood. Statistical significance was determined by analysis of variance; IC₅₀ of the aptamer was calculated using a fitted linear regression curve.\nTo evaluate the inhibitory effect of the aptamer on platelet adhesion, human whole blood samples were treated with aptamer starting at 900 nmol/L with 2-fold dilutions to 14 nmol/L and tested by measuring platelet adhesion under high-shear stress. The aptamer prevented platelet adhesion to the collagen surface in a dose-dependent manner (FIG. 20-22)."}, "[7]": {"molecular_target": "T1, von Willebrand factor (VWF)", "experiment": "filter; Bmax 56%; 2 mM CaCl2, 37 C", "details": "tags: factor VIII free, Haematologic Technologies Inc", "method": "as §1"}, "[8]": {"molecular_target": "T1, von Willebrand factor (VWF)", "experiment": "filter; Bmax 64.8%; 2 mM CaCl2, 37 C", "details": "tags: factor VIII free, Haematologic Technologies Inc; label: 5'-32P", "method": "as §1"}, "[9]": {"molecular_target": "T1, von Willebrand factor (VWF)", "experiment": "filter; Bmax 64%; 2 mM CaCl2, 37 C", "details": "tags: factor VIII free, Haematologic Technologies Inc; label: 5'-32P", "method": "as §1"}, "[10]": {"molecular_target": "T1, von Willebrand factor (VWF)", "experiment": "filter; Bmax 20%; 2 mM CaCl2, 37 C", "details": "tags: factor VIII free, Haematologic Technologies Inc; label: 5'-32P", "method": "as §1"}, "[11]": {"molecular_target": "T1, von Willebrand factor (VWF)", "experiment": "filter; NB (no binding); 2 mM CaCl2, 37 C", "details": "tags: factor VIII free, Haematologic Technologies Inc; label: 5'-32P", "method": "as §1"}, "[12]": {"molecular_target": "T1, von Willebrand factor (VWF)", "experiment": "filter; Bmax 70%; 20 mM HEPES pH 7.4, 150 mM NaCl, 2 mM CaCl2, 0.01% BSA, 37 C", "details": "tags: factor VIII free, Haematologic Technologies Inc; label: 5'-32P", "method": "as §1"}, "[13]": {"molecular_target": "T1, von Willebrand factor (VWF)", "experiment": "filter; Bmax 37%; 2 mM CaCl2, 37 C", "details": "tags: factor VIII free, Haematologic Technologies Inc; label: 5'-32P", "method": "as §1"}}}
{"binder": "B1", "values": [{"measurement": "Kd", "setting": "[1]", "value": 9.2, "unit": "nM"}]}
{"binder": "B2", "values": [{"measurement": "Kd", "setting": "[2]", "value": 55, "unit": "nM"}]}
{"binder": "B3", "values": [{"measurement": "Kd", "setting": "[3]", "value": 5.9, "unit": "nM"}]}
{"binder": "B4", "values": [{"measurement": "Kd", "setting": "[4]", "value": 0.8, "unit": "nM"}]}
{"binder": "ACGAACUGCCCUCGAUCGACGCACAGACGU (ssRNA, mAfCmGmAmAmCfUmGfCfCfCfUmCmGmAmUmCmGmAfCmGfCmAmCmAmGmAfCmGfU-idT)", "note": "[T59 vrt4]", "values": [{"measurement": "Kd", "setting": "[5]", "value": 364, "unit": "nM"}]}
{"binder": "ACGAACUGCCCUCGAUCGACGCACAGACGUUUUUU (ssRNA, mAmCmGmAmAmCmUmGfCfCfCmUmCmGmAmUmCmGmAfCfGfCmAmCmAmGmAmCmGmUmUmUmUmUmU-idT)", "note": "[T79 vrt7 (DTRI-031)]", "values": [{"measurement": "IC50", "setting": "[6]", "value": 72.5, "unit": "nM"}, {"measurement": "Kd", "setting": "[7]", "value": 11.2, "unit": "nM"}]}
{"binder": "ACGAACUGCCCUCGUAAGACGCACAGACGUUUUUU (ssRNA, mAmCmGmAmAmCmUmGfCfCfCmUmCmGmUmAmAmGmAfCrGfCmAmCmAmGmAmCmGmUmUmUmUmUmUidT)", "note": "[DTRI-019]", "values": [{"measurement": "Kd", "setting": "[8]", "value": 4.3, "unit": "nM"}]}
{"binder": "ACGAACUGCCCUCGAUCGACGCACAGACGUUUUUU (ssRNA, 2'-F C and U; 2'-OH A and G; 3' idT)", "note": "[T79]", "values": [{"measurement": "Kd", "setting": "[9]", "value": 1.6, "unit": "nM"}]}
{"binder": "ACGAACUGCCCUCGAUCGACGCACAGACGUUUUUU (ssRNA, mAmCmGmAmAmCmUmGfCfCfCmUmCmGmAmUmCmGmAfCmGfCmAmCmAmGmAmCmGfUmUmUmUmUmU-idT)", "note": "[T79 vrt3]", "values": [{"measurement": "Kd", "setting": "[10]", "value": 66, "unit": "nM"}]}
{"binder": "B5", "values": [{"measurement": "binding result", "setting": "[11]", "value": "no binding"}]}
{"binder": "B6", "values": [{"measurement": "Kd", "setting": "[12]", "value": 12, "unit": "nM"}]}
{"binder": "CCCACGAACUGCCCUCGAUCGACGCACAGACGU (ssRNA, 2'-F C and U; 2'-OH A and G; 3' idT)", "note": "[T74]", "values": [{"measurement": "Kd", "setting": "[13]", "value": 23, "unit": "nM"}]}
